Data: patent US20190177366A1 (published 2019)
Bridge positions count the residues as written; N and C are the ends. Ends that are not written are not given here.

Key:
[1] = molecular target: T1, proprotein convertase subtilisin/kexin type 9 (PCSK9) (human, UniProt Q8NBP7 31-152); assay: phage competition ELISA; competing phage pep2-8
[2] = molecular target: T1, proprotein convertase subtilisin/kexin …; assay: phage competition ELISA; competing phage K9gvpep4
[3] = molecular target: T1, proprotein convertase subtilisin/kexin …; assay: competition

T1 sequence (Q8NBP7 31-152, chain 1 of 2): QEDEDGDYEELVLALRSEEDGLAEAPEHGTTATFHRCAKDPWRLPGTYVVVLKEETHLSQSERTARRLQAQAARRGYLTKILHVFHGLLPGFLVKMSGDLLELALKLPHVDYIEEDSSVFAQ
T1 sequence (Q8NBP7 153-692, chain 2 of 2): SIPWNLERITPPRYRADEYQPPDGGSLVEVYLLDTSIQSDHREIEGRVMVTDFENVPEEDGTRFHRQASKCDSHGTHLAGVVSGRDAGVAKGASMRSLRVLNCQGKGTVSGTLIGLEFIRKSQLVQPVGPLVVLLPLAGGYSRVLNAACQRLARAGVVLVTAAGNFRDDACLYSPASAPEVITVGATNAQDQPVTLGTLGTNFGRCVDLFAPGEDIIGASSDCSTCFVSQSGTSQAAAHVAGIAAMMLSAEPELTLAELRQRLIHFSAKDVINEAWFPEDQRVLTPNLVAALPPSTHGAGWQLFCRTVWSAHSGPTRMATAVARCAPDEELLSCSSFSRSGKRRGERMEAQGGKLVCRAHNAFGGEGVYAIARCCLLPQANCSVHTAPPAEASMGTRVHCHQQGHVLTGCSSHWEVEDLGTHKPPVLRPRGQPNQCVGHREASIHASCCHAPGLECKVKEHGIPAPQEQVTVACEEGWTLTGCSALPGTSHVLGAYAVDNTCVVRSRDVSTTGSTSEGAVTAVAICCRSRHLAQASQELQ

B1: Compound 20 (peptide)
peptide: Ac-TVFTSWEEYLDWVGSGDLMPWNLVRIGLLR-NH2
[1]
  IC50: 14.5 nM
[2]
  IC50: 2.69 nM

B2: K9gvpep4 (peptide)
peptide: SGCRLPWNLQRIGLPC
modifications: not fully specified (bridges); cysteine pairing not given here
[3]
  IC50: 318 nM

B3: Compound 19 (peptide)
peptide: Ac-TVFTSWEEYLDWVGSGCRLPWNLQRIGLPC-NH2
modifications: disulfide 17-30 (inferred)
[1]
  IC50: 6.19 nM
[2]
  IC50: 3.44 nM

B4: K9gvpep7 (peptide)
peptide: SGDLMPWNLVRIGLLR
[3]
  IC50: 635 nM
